assay: soluble on expression in E. coli; label from the status in PepcDB or PDB records

| Sequence | soluble on expression in E. coli |
| --- | --- |
| TSKETFTHYQPQGNSDPAHTATAPGGLSAKAPAMTPLMLDTSSRKLVAWDGTTDGAAVGILAVAADQTSTTLTFYKSGTFRYEDVLWPEAASDETKKRTAFAGTAISIV | soluble |
| TSKINWNISVNATTYKNKILTLPEEKRESGIWNGIFKMVEGGSYYDYYIKEWAGVDPEDGKAMWYKDVTDKNGNTTKETTKTYSEATDYKAGCALPDLYGGISTSLNAYGFDFSIALTYQLGGQGYDYTYATLMNSAQGAGTNYHNDILNAWTPENKYTDVPKLNAKESNNNSTSTRFLTSTSYLSLQNISVGYTLPKNWIAKLGCESLRVYFVADNVALLSARKGYDPRTNWNGESNYNYSALRSISGGITMKF | not soluble |
| TSKKKRQRGSRTHGGGSHKNRRGAGHRGGRGDAGRDKHEFHNHEPLGKSGFKRPQKVQEEAATIDVREIDENVTLLAADDVAEVEDGGFRVDVRDVVEEADDADYVKVLGAGQVRHELTLIADDFSEGAREKVEGAGGSVELTDLGEERQAEAEETEDADADEE | soluble |
| TTPMNLTDAIAYILRPFAVLKVPVNDIALMISVALRFIPTLMGETDKIMKAQRARGVDFGEGNLFEQMKVVVPIFIPLFVSSFNRAEELADAMEARGYQGGEGRTRFRILH | not soluble |
| TTPTVNATPKIHKRDYQKDVVYLYQFPRIDTVPNLSSFCLKTETFLRAFKIPHEVIETGSLRSRNGTLPFVELNGEHIPDSDLIEVRLRKHFQIPNLSAEDESHATALCRLADNHLLSIIIKYKAAEDAWYSALLRGVPGPNCLKTILKPIVRKLFMKKVHERTGGAIGNFTEDEAEMLCHKDLQAIQDSIKGKYLFGDKITSADCTVFGEVASAYYPFPNKFSRIIDSHYPKLHEYCDRIIEELY | not soluble |
| TVEKSVVFKAEGEHFTDQKGNTIVGSGSGGTTKYFRIPAMCTTSKGTIVVFADARHNTASDQSFIDTAAARSTDGGKTWNKKIAIYNDRVNSKLSRVMDPTCIVANIQGRETILVMVGKWNNNDKTWGAYRDKAPDTDWDLVLYKSTDDGVTFSKVETNIHDIVTKNGTISAMLGGVGSGLQLNDGKLVFPVQMVRTKNITTVLNTSFIYSTDGITWSLPSGYCEGFGSENNIIEFNASLVNNIRNSGLRRSFETKDFGKTWTEFPPMDKKVDNRNHGVQGSTITIPSGNKLVAAHSSAQNKNNDYTRSDISLYAHNLYSGEVKLIDDFYPKVGNASGAGYSCLSYRKNVDKETLYVVYEANGSIEFQDLSRHLPVIKSYN | soluble |
| TVLPKDIPGDSLKVTVGTANGKPGDTVTVPVTFADVAKMKNVGTCNFYLGYDASLLEVVSVDAGPIVKNAAVNFSSSASNGTISFLFLDNTITDELITADGVFANIKFKLKSVTAKTTTPVTFKDGGAFGDGTMSKIASVTKTNGSVTIDP | soluble |
| VAGDTTITIVGNLTADPELRFTPSGAAVANFTVASTPRIYDRQTGEWKDGEALFLRCNIWREAAENVAESLTRGARVIVSGRLKQRSFETREGEKRTVIEVEVDEIGPSLRYATAKVNKASRSGGFGSGSRPAPAQTSSASGDDPWGSAPASGSFGGGDDEPPF | soluble |
| VATLNESIEAGLEPGAVALILEAFPIEDRVRLWRALPLELHIDVLTEMRADVRFSIINALSEVELKLTLAKLDNLSLIEWADSLPESIINEALALIEKDELELYDQANEYEDDELGRWAERKIITLPFNITVGTAKQLMERYSYDTPQQVYLINRNKQFRGAVNYYEILRSDSGVRLKTLEIETVTVLDSKMTLPEAVEALEHSALPALPVTDADQTLIGEVDWQFALSTQREIYEARLMAGTGMDEGDDLFAPVLKSSQKRGV | not soluble |
| VAVVLDRQGKVQTVNGLFETELSYSQSEIAGRSLSEMSPPELSGDTHQKRALAAIRDGKHFSGTLRLVSKTGARVWLRTVVVPFKNETGGIEQITLYSSVLT | not soluble |
| VDKIYVIEENDPFIEEQIKAYGIDCIGKDVIPPYGEMTPDVLRKAIFGKTNDTIEYKSELVTPRPPSFCAGCPHRGFFYELGKRKNLIVGGDIGCYTLGFAPPYNGIDYVVCMGSAFGTAHGAQKVLNMKDDNEKRLVGVLGDSTFFHTGINGLLDVVYNRGNSISVILDNRITGMTGHQENPGSGYTLQGAKTKEVDIEGLVKACGIEHVRVINPNNLKEVNEALDWALAIEDEPSVIIT | not soluble |
| VDYSRTETLQFEDDEYYYYVKAVPKVGVTLPEKQVKHITEPHEEQPKEAKAAVNLKPEPMVQETVAIDTSQIQEADLEKNVDELLLTQSLNEELRQNQNEPEDDLSLTKSLGDLWTKKPGSGE | not soluble |
| VETASLDVYAKYVLRSICQQEWVGERCLKSLCEDSNDLQDPVLSSAQAQRLMQLICYPHRLLDNEDGENPQRQRIKRILQNLDQWTMRQSSLELQLMIKQTPNNEMNSLLENIAKATIEVFQRSAETGSSSGSTASNMPSSSKTKPVLSSLERSGVWLVAPLIAKLPTSVQGHVLKAAGEELEKGQHLGSSSRKERDRQKQKSMSLLSQQPFLSLVLTCLKGQDEQREGLLTSLYSQVHQIVN | not soluble |
| VFNSDAPLETTIKGMKTVMLGYDCRMSQQSPAYLERIVKDVKKYKKEDTLVIVNMHWGVEYRETPTNYQTQFGHAILDAGADIIMGAHPHRLESIEKYKDKYIVYSMGDFAFGADPTLLSRMTSMFQLRFTKEA | not soluble |
| VIGADVPRDSQRARVYAAEAFVRTLFDRVTAHGSPTVEFFGTQLTLPPEGRFGSVASVQRYVDDVLALPAVGQNWPTVSPVRVRARRAATAAHYENHGGTGTIAVPDRHTAGWAMRELVVLHEVAHHLCQVPPPHGPEFVATVCTLTELVMGPEVGHVFRVVYAQEGVR | soluble |
| VLTCNEAFARMRGQSVKEIEGSSIVSLYAPEDQQMVKDKLKITDSTGFCSCQAKMMRKDGTIFPVQIDVVGLKDENGQIMYRIVTVQDSTER | not soluble |
| VPPPGTMVMVERKVGSWVDGQPIDLQRDWRSWEQLPDSLKVAVIAGEDQHFAEHHGFDLPAIQQALAHNERGGSIRGASTLSQQVAKNVFLWSGRSWLRKGLEAWFTLLIETLWTKQRILEVYLNSAEWGPGVFGAQAAARYHFGLDAERLSRTQASQLAAVLPSPLKWSAARPGPYVRQRAAWIRQQMWQLGGDDYLLRLER | not soluble |
| VRQLLGLEGPIKRVECFDISHTMGEATVASCVVFDAVGPVRSQYRRYNITGITPGDDYAAMRQAIERRFRRAVEEDKQGERPDVLFIDGGAGQLAQAKMALNAVGVESVLLVGVSKGEERRAGHETLIMLDGQELHPGAASPALQFIQQVRDEAHRFAI | not soluble |
| VRWIGLSTGLVSAMLVAGLVACGSNSPASSPAGPTQGARSIVVFAAASLQSAFTQIGEQFKAGNPGVNVNFAFAGSSELATQLTQGATADVFASADTAQMDSVAKAGLLAGHPTNFATNTMVIVAAAGNPKKIRSFADLTRPGLNVVVCQPSVPCGSATRRIEDATGIHLNPVSEELSVTDVLNKVITGQADAGLVYVSDALSVATKVTCVRFPEAAGVVNVYAIAVLKRTSQPALARQFVAMVTAAAGRRILDQSGFAKP | not soluble |
| VSAASLSKSAPAEPQPGPPQPAAGPQALPAIGGLTPFSSVDWPGQLAAVVFIAGCPWRCHYCHNPHLQERARGLDWREVLDFLGRRRNLLDAVVFSGGEPLSEPRLPQLIDAARALGLRIGLHTGGIYPARFAEVLPRLDWVGLDIKTTAPRYDALTGRRGSAAPVDACLDLLLRSHCAFECRTTWHPDWLPEPQLLALAQSLCSRGVKHYAIQAYRSAPGTLATALPSEATQHALAACFSSFSCR | soluble |
| VSDGEQAKSRRRRGRRRGRRAAATAENHMDAQPAGDATPTPATAKRSRSRSPRRGSTRMRTVHETSAGGLVIDGIDGPRDAQVAALIGRVDRRGRLLWSLPKGHIELGETAEQTAIREVAEETGIRGSVLAALGRIDYWFVTDGRRVHKTVHHYLMRFLGGELSDEDLEVAEVAWVPIRELPSRLAYADERRLAEVADELIDKLQSDGPAALPPLPPSSPRRRPQTHSRARHADDSAPGQHNGPGPGP | not soluble |
| VSVGTHPTFENSPSGTVLTSPPDGSAVDRATDAARRVVDALLRTDRGNANLERVAEELNSIAGHLEEHAPAVAERLIDMWNGEGVTRHDPVTGPENALAPPVVLEGLSDGSVRGTVTLTIPYQGPPGHVHGGVSALLLDHVLGVANAWGGKAGMTAQLSTRYHRPTPLFEPLTLTGKLMSVDGRKITTAGDIRTADGQVCVSVEGLFVDKTVPRPR | soluble |
| VTVRMDPQRFDELVSDALDLIPPELADAMDNVVVLVANRHPQHENLLGQYEGVALTERGSDYAGSLPDAITIYREALLDACDSEDEVVDQVAITVIHEVAHHFGIDDERLDQLGWRDEPAPGRGNPDLSAPDAMNGP | soluble |
| VVGHIVNDLQRRKVGDQEVVKFRVASNSRRRTSDGGWEPGNSLFITVNCWGRLVTGVGAALGKGAPVIVVGHVYTSEYEDRDGIRRSSLEMRATSVGPDLSRVIVRIEKPAYTGPSAGDLPAATGTGAAGAADAPASAADSVSDVVVDDAITGHNPLPISA | not soluble |
| WGYEAVGRFTSWEQIATYPIDNDRKGNKTVVPGDIMYKDVNGDGVINYMDERPIGYRSDSTPTLNFGINLSASWKGFDLAMDWTGSGMTSWQQQYETARPFQNDGNSPEEVFKDAWHLADIWDADSQLIPGKYPLIRLNNEETSAYDKSTFWLHNVKYIKLRNLEFGYTLPKRIVAKAGISNLRLYVSGTNLFSISNIPFMDPECIDSNGLDYPTMRVVNLGINLKF | not soluble |
| WILASTTEGAPSVAPLNVTVFLNESSDNVDIRWMKPPTKQQDGELVGYRISHVWQSAGISKELLEEVGQNGSRARISVQVHNATCTVRIAAVTRGGVGPFSDPVKIFIPAH | soluble |
| WKQKVGYPTNQTWGYIAEGLFVDDNEVANSPVQFGEYGAGDIKYRDVNKDGKITDLDQVPIGYPKEPEIVYGFGASYGYKNWDISVFFQGLARESFWIDYNNVSPYFNTVDTKVVGNRVGHNALAKFIADSHWSEDNRDAYAVWPRLSPTSIENNSKTSTWFMRDGSFLRLKQLEIGYTIPEKVTNKVGIKNLRFYVTGNNLLCFSKFKLWDPEMAGAGLGYPVQRVYNVGLNLTF | not soluble |
| WLFFRYMAIGGYVGAATVGAAAW | soluble |
| WLSGYAGPADGTQQPDAPEHAVAREALVDLCRRRHFLSGTPQQLSTAALLSGCHARFGPLGVELRKNLASQWWSSMVVFREQVFAVDSLHQEPGSSQPRDSAFRLVSPESIREILQDREPSKEQLVAFLENLLKTSGKLRATLLHGALEHYVNCLDLVNRKLPFGLAQIGVCFHPVSNSNQTPSSVTRVGEKTEASLVWFTPTRTSSQWLDFWLRHRLLWWRKFAMSPSNFSSADCQDELGRKGSKLYYSFPWGKEPIETLWNLGDQELLHTYPGNVSTIQGRDGRKNVVPCVLSVSGDVDLGTLAYLYDSFQLAENSFARKKSLQRKVLKLHPCLAPIKVALDVGKGPTVELRQVCQGLLNELLENGISVWPGYSETVHSSLEQLHSKYDEMSVLFSVLVTETTLENGLIQLRSRDTTMKEMMHISKLRDFLVKYLASASNVAAALDHHHHHH | soluble |
| WNHDEEARGSVRWRTLFDTALTSENVILYAQSVHSISDATHKKALHEELTCRIRDPENGIVKASRFISAIRQVGYEAQMDRAVLHKFLKDFKENFDSSKNYALNLNVTPFSSREYFKWFRDELLQLSREQRKCLNFEFVEAQFVRHLDFMRPVAKMLAGLGCHLMVGQAGRTIVSTHYLKEVDIRYLKLHRSLVAKIDQRHENQLFVRSMLGAAANSKTKIIAVGIENQQELNTLLELGVYGGQGRYFSAE | not soluble |
